Results taken from PMC8513821 (Nature, 2021).

Target: the molecule itself
Experiment: single-molecule photobleaching step counting

B1: HCN1SM (human HCN1 with amino acids 636-865 deleted, N-terminal Twin-strep tag and eGFP) (complex, UniProt O60741 1-890, looked up)
chain: MEGGGKPNSSSNSRDDGNSVFPAKASATGAGPAAAEKRLGTPPGGGGAGAKEHGNSVCFKVDGGGGGGGGGGGGEEPAGGFEDAEGPRRQYGFMQRQFTSMLQPGVNKFSLRMFGSQKAVEKEQERVKTAGFWIIHPYSDFRFYWDLIMLIMMVGNLVIIPVGITFFTEQTTTPWIIFNVASDTVFLLDLIMNFRTGTVNEDSSEIILDPKVIKMNYLKSWFVVDFISSIPVDYIFLIVEKGMDSEVYKTARALRIVRFTKILSLLRLLRLSRLIRYIHQWEEIFHMTYDLASAVVRIFNLIGMMLLLCHWDGCLQFLVPLLQDFPPDCWVSLNEMVNDSWGKQYSYALFKAMSHMLCIGYGAQAPVSMSDLWITMLSMIVGATCYAMFVGHATALIQSLDSSRRQYQEKYKQVEQYMSFHKLPADMRQKIHDYYEHRYQGKIFDEENILNELNDPLREEIVNFNCRKLVATMPLFANADPNFVTAMLSKLRFEVFQPGDYIIREGAVGKKMYFIQHGVAGVITKSSKEMKLTDGSYFGEICLLTKGRRTASVRADTYCRLYSLSVDNFNEVLEEYPMMRRAFETVAIDRLDRIGKKNSILLQKFQKDLNTGVFNNQENEILKQIVKHDREMVQAALPRESSSVLNTDPDAEKPRFASNL
For B1, the “stoichiometry N” value was 4.
